Laboratory results as given in paper PMC4356366, “Structures of the human Pals1 PDZ domain with and without ligand suggest gated access of Crb to the PDZ peptide-binding groove” (Acta Crystallographica Section D: Biological Crystallography, 2015).
“And” between values parts separate entries of the source, which are not always exact repeats. Identical values can stand only once. “Also recorded” adds a separate entry of the source. Ends that are not written are not given here.

T1: human Pals1 PDZ domain (Pals1^PDZ; residues 251–335) (Homo sapiens, UniProt Q8N3R9)
T1 construct: the PDZ domain of human Pals1 (Pals1^PDZ; residues 251–335); GST (N, cleaved yes); made in house; host or cells: Escherichia coli FB810
T1 sequence (Q8N3R9 251-335): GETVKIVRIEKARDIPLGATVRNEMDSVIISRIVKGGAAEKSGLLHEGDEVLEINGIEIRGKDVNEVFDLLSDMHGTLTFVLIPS

T2: human Pals1 PDZ domain (Pals1^PDZ; residues 251-335), wild type (human, UniProt Q8N3R9 251-335)
T2 construct: vector-derived residues Gly-Pro-Leu-Gly-Ser at the amino-terminus of Pals1^PDZ, left after removal of GST; Pals1 (MPP5), human, PDZ domain, residues 251-335; also called MPP5; protein associated with Lin-7; source: E. coli FB810, purified (glutathione Sepharose 4B, GST removed with GST-3C protease, Superdex S75)
T2 sequence: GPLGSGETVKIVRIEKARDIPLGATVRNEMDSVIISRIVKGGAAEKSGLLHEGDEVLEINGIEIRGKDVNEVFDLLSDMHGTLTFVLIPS

T3: human Pals1 PDZ domain F318C mutant (human, UniProt Q8N3R9 251-335, F318C)
T3 construct: Pals1 (MPP5), human, PDZ domain, residues 251-335, F318C; The methods name only the wild type and F318A; also called Pals1^PDZ F318C
T3 sequence (looked up): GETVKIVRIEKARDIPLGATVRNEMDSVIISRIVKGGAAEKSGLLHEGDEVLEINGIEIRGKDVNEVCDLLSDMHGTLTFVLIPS

T4: human Pals1 PDZ domain F318A mutant (human, UniProt Q8N3R9 251-335, F318A)
T4 sequence: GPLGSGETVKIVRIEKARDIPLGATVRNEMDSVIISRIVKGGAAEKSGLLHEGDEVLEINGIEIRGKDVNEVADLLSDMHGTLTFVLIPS

T5: human Pals1 PDZ domain (Pals1^PDZ; residues 251-335), wild type (human, UniProt Q8N3R9 251-335)
T5 chain: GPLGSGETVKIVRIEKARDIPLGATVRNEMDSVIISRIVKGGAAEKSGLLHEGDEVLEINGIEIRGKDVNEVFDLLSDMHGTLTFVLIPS

B1: fluorescein-labelled human Crb1 peptide, residues 1390-1406 (Crb^17) (peptide)
peptide: RVEMWNLMPPPAMERLI
modifications: also: fluorescein label, position not given here
notes: also called fluorescein-labelled Crb^17; Crumbs peptide (homologue 1)

Legend:
[1] = molecular target: T1, human Pals1 PDZ domain (Pals1^PDZ; residues 251–335); test: Fluorescence polarization binding assay, fluorescein-labelled Crb peptides with Pals1^PDZ; conditions: Fp, fluorescein-labelled peptide 50 nM, protein 0 to 300 µM, 20 mM HEPES pH 7.5, 100 mM NaCl, 1 mM DTT, read after 5 min; measured in parallel from the same Pals1 preparation; representative of three independent experiments
Description: Fluorescence polarization (Fp) assays were performed to determine the K d for each peptide following a previously described protocol (Guettler et al., 2008[▶]). Binding assays were performed in 20 mM HEPES pH 7.5, 100 mM NaCl, 1 mM DTT. The reaction mixtures contained a fixed concentration of fluorescein-labelled peptide (50 nM) and a protein concentration ranging from 0 to 300 µM depending on the dissociation constant. The 20 µl reactions were carried out in a 384-well plate and measured after 5 min using a Tecan Safire2 plate reader with excitation at 470 nm and emission at 525 nm. The anisotropy values were normalized and the K d values were determined using nonlinear regression with the graphics program Prism (Heyduk & Lee, 1990[▶]).
To characterize the interaction between the PDZ domain of human Pals1 (Pals1^PDZ; residues 251–335) and the intracellular segment of human Crb1 in vitro, we used fluorescence polarization (Fp) assays with a fluorescein-labelled peptide containing 17 carboxy-terminal residues 1390–1406 (defined hereafter as Crb^17). […] The Pals1^PDZ–Crb^17 interaction was stable to size-exclusion chromatography as detected from the Crb^17 intrinsic tryptophan fluorescence (data not shown). […]

[2] = molecular target: T2, human Pals1 PDZ domain (Pals1^PDZ; …); test: fluorescence polarisation; fixed fluorescein-labelled peptide (50 nM), Pals1 PDZ protein titrated 0 to 300 µM; 20 mM HEPES pH 7.5, 100 mM NaCl, 1 mM DTT; 20 µl in 384-well plate, read after 5 min; conditions: both partners purified
[3] = molecular target: T3, human Pals1 PDZ domain F318C mutant; test: as above; conditions: both partners purified
[4] = molecular target: T4, human Pals1 PDZ domain F318A mutant; test: FP
[5] = molecular target: B1; test: fluorescence polarisation; fixed fluorescein-labelled peptide (50 nM), Pals1 PDZ protein titrated 0 to 300 µM; 20 mM HEPES pH 7.5, 100 mM NaCl, 1 mM DTT; 20 µl in 384-well plate, read after 5 min; conditions: both partners purified
[6] = molecular target: T5, human Pals1 PDZ domain (Pals1^PDZ; …); test: FP
[7] = molecular target: Individual Crb^17 substitutions E1403A, R1404A and L1405A; test: fluorescence polarisation; fixed fluorescein-labelled peptide (50 nM), Pals1 PDZ protein titrated 0 to 300 µM; 20 mM HEPES pH 7.5, 100 mM NaCl, 1 mM DTT; 20 µl in 384-well plate, read after 5 min

| Molecule | binding result [2] | Kd [6] [µM] | other results |
| --- | --- | --- | --- |
| Crb^17 I1406A: Crb^17 peptide with carboxy-terminal Ile1406 replaced by alanine, fluorescein-labelled (RVEMWNLMPPPAMERLA; also: fluorescein label, position not given here) |  |  | dissociation constant (Kd) for Pals1^PDZ [1]: completely abolished detectable binding; also recorded: Not detectable |
| B1 |  |  | Kd [2]: 9.2 µM and 12.4 µM; Kd [3]: 5 µM; Kd [4]: 1800 nM |
| human Pals1 PDZ domain F318A mutant (domain or fragment, vector-derived residues Gly-Pro-Leu-Gly-Ser at the amino-terminus of Pals1^PDZ, left after removal of GST (told for the wild type, same preparation); Pals1 (MPP5), human, PDZ domain, residues 251-335, F318A; also called Pals1^PDZ F318A; source: E. coli FB810, purified (glutathione Sepharose 4B, GST removed with GST-3C protease, Superdex S75)) GPLGSGETVKIVRIEKARDIPLGATVRNEMDSVIISRIVKGGAAEKSGLLHEGDEVLEINGIEIRGKDVNEVADLLSDMHGTLTFVLIPS |  |  | fold tighter binding than wild-type Pals1^PDZ [5]: 5 fold |
| RVEMWNLMPPPAMEALI (also: fluorescein label, position not given here) [fluorescein-labelled Crb^17 R1404A] | binds | 51.5 |  |
| human Pals1 PDZ domain (Pals1^PDZ; residues 251-335), wild type (domain or fragment) GPLGSGETVKIVRIEKARDIPLGATVRNEMDSVIISRIVKGGAAEKSGLLHEGDEVLEINGIEIRGKDVNEVFDLLSDMHGTLTFVLIPS |  |  | Kd [7]: 52 to 55 µM |
| AMERLI (also: fluorescein label, position not given here) [fluorescein-labelled shorter Crb1 peptide spanning residues 1401-1406 (Crb^6)] | binds | 16.8 |  |
| RVEMWNLMPPPAMARLI (also: fluorescein label, position not given here) [fluorescein-labelled Crb^17 E1403A] | binds | 53.1 |  |
| RVEMWNLMPPPAAERLI (also: fluorescein label, position not given here) [fluorescein-labelled Crb^17 M1402A] | binds | 8.1 |  |
| RVEMWNLMPPPAMERAI (also: fluorescein label, position not given here) [fluorescein-labelled Crb^17 L1405A] | binds | 55.3 |  |
